Measured values reported in patent US20230265198A1 (TWIST BIOSCIENCE, published 2023).

Biological target: T1, neuropilin-1 (NRP1) on HEK293 cells overexpressing NRP1 (UniProt O14786 22-923, limits assumed)
T1 construct: whole, on cells
Test: flow cytometry, HEK293-NRP1 vs HEK293

Binder | 100 nM FACS (MFI Ratio)
NRP1-112 (VHH) VHH: EVQLVESGGGLVQPGGSLRLSCAASGNIFINNAMGWFRQAPGKERELVAAITSSSGRRWYADSVKGRFTISADNSKNTAYLQMNSLKPEDTAVYYCAAYQRGWGDWGQGTLVTVSS | 0.7
NRP1-109 (VHH) VHH: EVQLVESGGGLVQPGGSLRLSCAASGRTSRSYDMGWFRQAPGKEREFVASIDQSGESTAYADSVKGRFTISADNSKNTAYLQMNSLKPEDTAVYYCARADYYGSGSYFDYWGQGTLVTVSS | 2.1
NRP1-94 (VHH) VHH: EVQLVESGGGLVQPGGSLRLSCAASGRTFSTYASMGWFRQAPGKEREFVARIWPGGSTYYADSVKGRFTISADNSKNTAYLQMNSLKPEDTAVYYCARQFGAWLGEVVGPMDVWGQGTLVTVSS | 2.8
NRP1-102 (VHH) VHH: EVQLVESGGGLVQPGGSLRLSCAASGGTIRTMGWFRQAPGKEREFVATISWSGALTHYADSVKGRFTISADNSKNTAYLQMNSLKPEDTAVYYCAHRDNFWSAYYDFWGQGTLVTVSS | 2.5
NRP1-211 (antibody, IgG2, V domains shown) VH: EVQLLESGGGLVQPGGSLRLYCAASGFTFGSYGMSWVRQAPGKGLEWVSSISGSGGSTYYTDSVKGRFTISRDNSKNTLYLQMNSLRAEDTAVYYCVRALAGRRDHWGQGTLVTVSS VL: DIQMTQSPSSLSASVGDRVTITCRASQTISNYVNWYQQKPGKAPKLLIYAASSLHAGVPSRFSGSGSGTDFTLTISSLQPEDFATYYCQQGYSTPLTFGGGTKVEIK | 3.8
NRP1-273 (antibody, IgG2, V domains shown) VH: EVQLLESGGGLVQPGGSLRLYCAASGFTFGSYGMSWVRQAPGKGLEWVSSISGSGGSTYYTDSVKGRFTISRDNSKNTLYLQMNSLRAEDTAVYYCVRALAGRRDHWGQGTLVTVSS VL: DIQMTQSPSSLSASVGDRVTITCRASRRISTYLNWYQQKPGKAPKLLIYAASSLHAGVPSRFSGSGSGTDFTLTISSLQPEDFATYYCQQGYSTPLTFGGGTKVEIK | 6.2
NRP1-127 (antibody, IgG2, V domains shown) VH: EVQLLESGGGLVQPGGSLRLSCAASGFTFSNYGVSWVRQAPGKGLEWVSYISSSGSSTYYADSVKGRFTISRDNSKNTLYLQMNSLRAEDTAVYYCAKGARRFDYWGQGTLVTVSS VL: DIQMTQSPSSLSASVGDRVTITCRASHNINSYLNWYQQKPGKAPKLLIYGKKNRPSGVPSRFSGSGSGTDFTLTISSLQPEDFATYYCGQSYRYPLTFGQGTKVEIK | 2.1
NRP1-120 (antibody, IgG2, V domains shown) VH: EVQLLESGGGLVQPGGSLRLSCAASGFTFKSYGMHWVRQAPGKGLEWVSEISPSGKKKYYADSVKGRFTISRDNSKNTLYLQMNSLRAEDTAVYYCAAPNDQSAAFDYWGQGTLVTVSS VL: DIQMTQSPSSLSASVGDRVTITCKASDHIGKFLTWYQQKPGKAPKLLIYPKHNRPPGVPSRFSGSGSGTDFTLTISSLQPEDFATYYCQQSYDNPLTFGQGTKVEIK | 5.2
NRP1-137 (antibody, IgG2, V domains shown) VH: EVQLLESGGGLVQPGGSLRLSCAASGFTFSRYAMNWVRQAPGKGLEWVSTISSGGGYTYYPDSVKGRFTISRDNSKNTLYLQMNSLRAEDTAVYYCARSYGGGFDYWGQGTLVTVSS VL: DIQMTQSPSSLSASVGDRVTITCQASQSISSYLAWYQQKPGKAPKLLIYPKHNRPPGVPSRFSGSGSGTDFTLTISSLQPEDFATYYCQQSYKSPLTFGQGTKVEIK | 1200
NRP1-136 (antibody, IgG2, V domains shown) VH: EVQLLESGGGLVQPGGSLRLSCAASGFTFKDYGMNWVRQAPGKGLEWVSVISGSGGRPNYADSVKGRFTISRDNSKNTLYLQMNSLRAEDTAVYYCARVWRNHLDYWGQGTLVTVSS VL: DIQMTQSPSSLSASVGDRVTITCSGDRLGEKYVSWYQQKPGKAPKLLIYGKKNRPSGVPSRFSGSGSGTDFTLTISSLQPEDFATYYCQAWASSTVVFGQGTKVEIK | 128
NRP1-124 (antibody, IgG2, V domains shown) VH: EVQLLESGGGLVQPGGSLRLSCAASGFDFSDYEMSWVRQAPGKGLEWVSRISVAGRRTAYADSVKGRFTISRDNSKNTLYLQMNSLRAEDTAVYYCAKGRRKLRATRFDYWGQGTLVTVSS VL: DIQMTQSPSSLSASVGDRVTITCSGDKLRNKYASWYQQKPGKAPKLLIYETSKLASGVPSRFSGSGSGTDFTLTISSLQPEDFATYYCQQSFSVPAFGQGTKVEIK | 1200
NRP1-108 (VHH) VHH: EVQLVESGGGLVQPGGSLRLSCAASGNIPPINAMGWFRQAPGKEREWVATITSGGSTTYADSVKGRFTISADNSKNTAYLQMNSLKPEDTAVYYCARDRYFYDTSGNQRSSWFDPWGQGTLVTVSS | 0.9
NRP1-107 (VHH) VHH: EVQLVESGGGLVQPGGSLRLSCAASGRTFSNSGMGWFRQAPGKEREFVAAISWNGGTTNYADSVKGRFTISADNSKNTAYLQMNSLKPEDTAVYYCATLGGTVSGSHWSYFYYMDVWGQGTLVTVSS | 2.8
NRP1-104 (VHH) VHH: EVQLVESGGGLVQPGGSLRLSCAASGFSFDDYVMGWFRQAPGKEREFVARISTSGSWTGYADSVKGRFTISADNSKNTAYLQMNSLKPEDTAVYYCAINYSPGYPDHWGQGTLVTVSS | 6.2
NRP1-10 (VHH) VHH: EVQLVESGGGLVQPGGSLRLSCAASGFTFSMWPMGWFRQAPGKEREFVARITGGGSTIWSRGDTYYADSVKGRFTISADNSKNTAYLQMNSLKPEDTAVYYCARADYYDSSAFDYWGQGTLVTVSS | 19.6
NRP1-98 (VHH) VHH: EVQLVESGGGLVQPGGSLRLSCAASGLNLSRLDMGWFRQAPGKEREFVAAISWSGDSTNYADSVKGRFTISADNSKNTAYLQMNSLKPEDTAVYYCARIHKAPYYGMDVWGQGTLVTVSS | 1.2
NRP1-50 (VHH) VHH: EVQLVESGGGLVQPGGSLRLSCAASGRTFNRYPMGWFRQAPGKEREWVAAISTSGGSTYYADSVKGRFTISADNSKNTAYLQMNSLKPEDTAVYYCAIHTSREIWGQGTLVTVSS | 5.9
NRP1-95 (VHH) VHH: EVQLVESGGGLVQPGGSLRLSCAASGRTFNRYPMGWFRQAPGKEREWISALAPGGGNRYYADSVKGRFTISADNSKNTAYLQMNSLKPEDTAVYYCAIHTSREIWGQGTLVTVSS | 1.5
NRP1-45 (VHH) VHH: EVQLVESGGGLVQPGGSLRLSCAASGRTFNRYPMGWFRQAPGKEREWVAAAHWSGGRMWYADSVKGRFTISADNSKNTAYLQMNSLKPEDTAVYYCAIHTSREIWGQGTLVTVSS | 6.6
NRP1-97 (VHH) VHH: EVQLVESGGGLVQPGGSLRLSCAASGFDFDNFDDYAMGWFRQAPGKEREFVAEIGWRDTTLYADSVKGRFTISADNSKNTAYLQMNSLKPEDTAVYYCARGRYDLSDFDYWGQGTLVTVSS | 1.7
NRP1-271 (antibody, IgG2, V domains shown) VH: EVQLLESGGGLVQPGGSLRLSCAASGFTFTTYGMSWVRQAPGKGLEWVSAISGSGGTTYYADSVKGRFTISRDNSKNTLYLQMNSLRAEDTAVYYCARVGPGRSIAARQGFKRRNNWFDPWGQGTLVTVSS VL: DIQMTQSPSSLSASVGDRVTITCRARQSISTYLNWYQQKPGKAPKLLIYSASTLESGVPSRFSGSGSGTDFTLTISSLQPEDFATYYCQQSYRTPWTFGGGTKVEIK | 0.8
NRP1-214 (antibody, IgG2, V domains shown) VH: EVQLLESGGGLVQPGGSLRLSCAASGFTFTTYGMSWVRQAPGKGLEWVSAISGSGGTTYYADSVKGRFTISRDNSKNTLYLQMNSLRAEDTAVYYCARVGPGRSIAARQGFKRRNNWFDPWGQGTLVTVSS VL: DIQMTQSPSSLSASVGDRVTITCRASQSVSTSLNWYQQKPGKAPKLLIYGASRLQTGVPSRFSGSGSGTDFTLTISSLQPEDFATYYCQQTYSSPRTFGGGTKVEIK | 1
NRP1-103 (VHH) VHH: EVQLVESGGGLVQPGGSLRLSCAASGRTLSRYTMGWFRQAPGKERELVATITSGGSTGYADSVKGRFTISADNSKNTAYLQMNSLKPEDTAVYYCAKDKWGVRGEFDSWGQGTLVTVSS | 6.2
NRP1-14 (VHH) VHH: EVQLVESGGGLVQPGGSLRLSCAASGFTFRNFGMGWFRQAPGKEREFVSAISPGGVERYADSVKGRFTISADNSKNTAYLQMNSLKPEDTAVYYCATVGGYDYGYYYGMDVWGQGTLVTVSS | 15.4
NRP1-111 (VHH) VHH: EVQLVESGGGLVQPGGSLRLSCAASGIAFRIRTMGWFRQAPGKERELVAAITSSSGRRWYADSVKGRFTISADNSKNTAYLQMNSLKPEDTAVYYCAARRIVNVEGAYRDWGQGTLVTVSS | 0.7
NRP1-113 (VHH) VHH: EVQLVESGGGLVQPGGSLRLSCAASGHTFRGDVMGWFRQAPGKEREFVASISGSGTRTLYADSVKGRFTISADNSKNTAYLQMNSLKPEDTAVYYCARDVEGGWYGLSYGMDVWGQGTLVTVSS | 0.4
NRP1-110 (VHH) VHH: EVQLVESGGGLVQPGGSLRLSCAASGRTFSNYSMGWFRQAPGKEREFVASIWWTFDAPYYADSVKGRFTISADNSKNTAYLQMNSLKPEDTAVYYCAKWDGLGTLWGQGTLVTVSS | 3.3
NRP1-101 (VHH) VHH: EVQLVESGGGLVQPGGSLRLSCAASGRNRYGMGWFRQAPGKEREFVAAISRSGGSTNYADSVKGRFTISADNSKNTAYLQMNSLKPEDTAVYYCAKGGAQNYTWGQGTLVTVSS | 2.4
